*1 amine or outer side, *2 acyl side, *3 side chain or, on linkers, in order; H or OH if unused. Where a SMILES comes first, the peptide text is derived from it. Bridges are numbered along the chain shown (N, C = ends). Where no end group is shown, it is not given here. sulfonated dichloro‑BODIPY dye = Sulfonated dichloro-BODIPY dye that cyclises the two flanking Cys through two SNAr reactions; sulfonated dichloro‑BODIPY = sulfonated dichloro-BODIPY dye attached to the two flanking Cys by SNAr reactions; X1 = COc1ccc(C2=C3C=C(S(=O)(=O)O)C([*:2])=[N+]3[B-](F)(F)n3c2cc(S(=O)(=O)O)c3[*:1])cc1
Legend:
[1] = biological target: TrkA-expressing cells (HeLa+A) (UniProt P04629); assay: Cell survival assay in serum-free media, TrkA-expressing cells (HeLa+A); type: cell-based; conditions: Figure 8 summary
Experimental: Cells were seeded at a density of 2 × 10^3 cells/well in complete media in 96-well plates and incubated for 24 h to allow cells to adhere. Cells were washed with DPBS, and then, media were swapped for serum-free media of the same type as the complete media. […] Cells were suspended and live cells counted using flow cytometry (CytoFLEX LX).

[2] = biological target: TrkB-expressing cells (HEK+B) (UniProt Q16620); assay: Cell survival assay in serum-free media, TrkB-expressing cells (HEK+B); type: cell-based; conditions: Figure 8 summary
Experimental: Loop mimics 5 were screened in cell survival assays to evaluate their efficacy in stimulating Trk receptors (Figure 2). Mimics were assayed for the ability to rescue cells from cell death when incubated in serum-free media (SFM) in the absence of NTs (a test for “agonism”) or in the presence of a suboptimal NT concentration (a test for NT “modulation”). Simultaneously, these assays may confirm test mimics are not cytotoxic at lower doses (though cytotoxicity assays were also performed up to higher doses, Figure S1). […] All the test compounds were screened at 50 μM concentrations initially, and then, dose response curves were measured for the hits (Table 1 and Figure 3).
We were forced to use transfectants in different cell lines (HeLa, HEK-293, NIH-3T3 expressing TrkA, B, and C, respectively) due to difficulties in obtaining transfected cells derived from a single wild type; however, none of the cells used express TrkA-C prior to transfection. Throughout this paper, HeLa cells are denoted as “HeLa”, and their TrkA transfectants are “HeLa+A”. Similarly, HEK-293 cells are “HEK”; their TrkB transfectants are HEK+B. NIH-3T3 cells are “NIH”, and their TrkC transfectants are “NIH+C”.
Cells were seeded at a density of 2 × 10^3 cells/well in complete media in 96-well plates and incubated for 24 h to allow cells to adhere. Cells were washed with DPBS, and then, media were swapped for serum-free media of the same type as the complete media. Cells were then treated with 50 μM compound either alone or in conjunction with suboptimal neurotrophin corresponding to the Trk receptor expressed for 48 h. Cells were washed with DPBS buffer twice and detached from the plate with 50 μL of trypsin for 3 min at 37 °C. Trypsinization was quenched with 100 μL of complete media. Cells were suspended and live cells counted using flow cytometry (CytoFLEX LX). Cell survival was normalized from cell count (CC) readings relative to optimal neurotrophin (NT = 100%) and DMSO (0%) utilizing GraphPad Prism 10.2, followed by statistical analysis via one-way ANOVA and Dunnett’s t test compared to the DMSO control. Dose response versions of this assay were conducted following the same procedure, but the data was analyzed in GraphPad Prism 10.2 using the nonlinear fit: {agonist} vs response – variable slope (four parameters) function.

[3] = biological target: TrkC-expressing cells (NIH+C) (UniProt Q16288); assay: Cell survival assay in serum-free media, TrkC-expressing cells (NIH+C); type: cell-based; conditions: Figure 8 summary
Experimental: Loop mimics 5 were screened in cell survival assays to evaluate their efficacy in stimulating Trk receptors (Figure 2). Mimics were assayed for the ability to rescue cells from cell death when incubated in serum-free media (SFM) in the absence of NTs (a test for “agonism”) or in the presence of a suboptimal NT concentration (a test for NT “modulation”). Simultaneously, these assays may confirm test mimics are not cytotoxic at lower doses (though cytotoxicity assays were also performed up to higher doses, Figure S1). […] All the test compounds were screened at 50 μM concentrations initially, and then, dose response curves were measured for the hits (Table 1 and Figure 3). […]
Cells were seeded at a density of 2 × 10^3 cells/well in complete media in 96-well plates and incubated for 24 h to allow cells to adhere. […] Cells were suspended and live cells counted using flow cytometry (CytoFLEX LX). Cell survival was normalized from cell count (CC) readings relative to optimal neurotrophin (NT = 100%) and DMSO (0%) utilizing GraphPad Prism 10.2, followed by statistical analysis via one-way ANOVA and Dunnett’s t test compared to the DMSO control. Dose response versions of this assay were conducted following the same procedure, but the data was analyzed in GraphPad Prism 10.2 using the nonlinear fit: {agonist} vs response – variable slope (four parameters) function.

[4] = biological target: T1, TrkB (on HEK293-TrkB transfectants) (UniProt Q16620 32-822); assay: cell-surface fluorescence binding on live cells (plate reader); serial dilution of the intrinsically fluorescent compound in serum-free media on adherent Trk-transfected cells, 2.5 h, washed with DPBS, dissolved in 1% SDS, ex 540/25 nm, em 620/40 nm; fluorescence of the Trk-negative parent cells subtracted; one site - specific binding fit; conditions: one partner purified
T1 construct: TrkB receptor expressed on transfected HEK-293 cells; also called HEK+B; HEK-TrkB; source: HEK-293, transfected (HEK293-TrkB), on live cells

[5] = biological target: T1, TrkB (on HEK293-TrkB transfectants); assay: cell-based or functional assay
[6] = biological target: T2, TrkA (on HeLa-TrkA transfectants) (UniProt P04629 33-796); assay: cell-based or functional assay
[7] = biological target: T3, TrkC (on NIH3T3-TrkC transfectants) (UniProt Q16288 32-839); assay: cell-based or functional assay
[8] = biological target: T2, TrkA (on HeLa-TrkA transfectants); assay: cell-surface fluorescence binding on live cells (plate reader); serial dilution of the intrinsically fluorescent compound in serum-free media on adherent Trk-transfected cells, 2.5 h, washed with DPBS, dissolved in 1% SDS, ex 540/25 nm, em 620/40 nm; fluorescence of the Trk-negative parent cells subtracted; one site - specific binding fit; conditions: one partner purified
[9] = biological target: T2, TrkA (on HeLa-TrkA transfectants); assay: cell-based or functional assay; remark: listed apart in the source
[10] = biological target: T3, TrkC (on NIH3T3-TrkC transfectants); assay: cell-surface fluorescence binding on live cells (plate reader); serial dilution of the intrinsically fluorescent compound in serum-free media on adherent Trk-transfected cells, 2.5 h, washed with DPBS, dissolved in 1% SDS, ex 540/25 nm, em 620/40 nm; fluorescence of the Trk-negative parent cells subtracted; one site - specific binding fit; conditions: one partner purified
[11] = biological target: T3, TrkC (on NIH3T3-TrkC transfectants); assay: cell-based or functional assay; remark: listed apart in the source

T3 sequence (Q16288 32-839): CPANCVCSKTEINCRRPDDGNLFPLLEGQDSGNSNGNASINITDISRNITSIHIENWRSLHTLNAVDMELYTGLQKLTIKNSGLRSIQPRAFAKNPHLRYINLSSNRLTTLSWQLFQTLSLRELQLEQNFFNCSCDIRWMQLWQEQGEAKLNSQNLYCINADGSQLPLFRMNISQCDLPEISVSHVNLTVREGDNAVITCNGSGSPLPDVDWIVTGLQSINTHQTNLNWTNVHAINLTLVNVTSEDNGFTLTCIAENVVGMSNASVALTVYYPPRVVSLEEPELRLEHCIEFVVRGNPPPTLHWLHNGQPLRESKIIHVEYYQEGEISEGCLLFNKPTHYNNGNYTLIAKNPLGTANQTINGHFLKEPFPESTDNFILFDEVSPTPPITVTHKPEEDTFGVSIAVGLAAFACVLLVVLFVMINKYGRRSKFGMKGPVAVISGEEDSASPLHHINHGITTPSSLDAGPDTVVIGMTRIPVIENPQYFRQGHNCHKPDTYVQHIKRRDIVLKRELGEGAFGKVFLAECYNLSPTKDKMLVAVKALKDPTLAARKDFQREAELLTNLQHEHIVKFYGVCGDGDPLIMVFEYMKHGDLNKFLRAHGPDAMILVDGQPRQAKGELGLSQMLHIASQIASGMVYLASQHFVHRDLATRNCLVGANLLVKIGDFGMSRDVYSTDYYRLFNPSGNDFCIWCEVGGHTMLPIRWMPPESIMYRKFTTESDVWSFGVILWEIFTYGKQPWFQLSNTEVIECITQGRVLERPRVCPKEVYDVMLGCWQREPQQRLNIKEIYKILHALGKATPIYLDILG
T2 sequence (P04629 33-796): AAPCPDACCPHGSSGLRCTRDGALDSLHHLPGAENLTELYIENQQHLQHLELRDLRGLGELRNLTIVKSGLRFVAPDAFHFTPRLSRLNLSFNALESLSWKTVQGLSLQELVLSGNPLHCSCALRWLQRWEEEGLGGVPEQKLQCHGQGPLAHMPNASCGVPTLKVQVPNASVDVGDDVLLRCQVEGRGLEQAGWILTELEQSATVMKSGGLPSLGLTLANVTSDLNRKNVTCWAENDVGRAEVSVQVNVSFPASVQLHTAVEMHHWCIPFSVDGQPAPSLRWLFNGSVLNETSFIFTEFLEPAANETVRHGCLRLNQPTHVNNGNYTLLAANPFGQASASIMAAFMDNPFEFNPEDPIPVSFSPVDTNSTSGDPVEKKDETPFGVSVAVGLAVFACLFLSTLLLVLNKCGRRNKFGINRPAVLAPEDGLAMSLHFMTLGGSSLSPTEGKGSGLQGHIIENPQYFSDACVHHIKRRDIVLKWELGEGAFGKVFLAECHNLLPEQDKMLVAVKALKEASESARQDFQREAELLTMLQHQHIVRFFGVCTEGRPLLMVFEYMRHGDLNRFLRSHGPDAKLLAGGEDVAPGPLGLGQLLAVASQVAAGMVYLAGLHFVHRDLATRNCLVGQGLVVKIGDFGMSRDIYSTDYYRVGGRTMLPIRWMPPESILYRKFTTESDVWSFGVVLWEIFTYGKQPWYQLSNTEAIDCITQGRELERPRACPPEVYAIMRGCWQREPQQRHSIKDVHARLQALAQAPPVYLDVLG
TrkB-expressing cells (HEK+B), sequence (Q16620 32-822): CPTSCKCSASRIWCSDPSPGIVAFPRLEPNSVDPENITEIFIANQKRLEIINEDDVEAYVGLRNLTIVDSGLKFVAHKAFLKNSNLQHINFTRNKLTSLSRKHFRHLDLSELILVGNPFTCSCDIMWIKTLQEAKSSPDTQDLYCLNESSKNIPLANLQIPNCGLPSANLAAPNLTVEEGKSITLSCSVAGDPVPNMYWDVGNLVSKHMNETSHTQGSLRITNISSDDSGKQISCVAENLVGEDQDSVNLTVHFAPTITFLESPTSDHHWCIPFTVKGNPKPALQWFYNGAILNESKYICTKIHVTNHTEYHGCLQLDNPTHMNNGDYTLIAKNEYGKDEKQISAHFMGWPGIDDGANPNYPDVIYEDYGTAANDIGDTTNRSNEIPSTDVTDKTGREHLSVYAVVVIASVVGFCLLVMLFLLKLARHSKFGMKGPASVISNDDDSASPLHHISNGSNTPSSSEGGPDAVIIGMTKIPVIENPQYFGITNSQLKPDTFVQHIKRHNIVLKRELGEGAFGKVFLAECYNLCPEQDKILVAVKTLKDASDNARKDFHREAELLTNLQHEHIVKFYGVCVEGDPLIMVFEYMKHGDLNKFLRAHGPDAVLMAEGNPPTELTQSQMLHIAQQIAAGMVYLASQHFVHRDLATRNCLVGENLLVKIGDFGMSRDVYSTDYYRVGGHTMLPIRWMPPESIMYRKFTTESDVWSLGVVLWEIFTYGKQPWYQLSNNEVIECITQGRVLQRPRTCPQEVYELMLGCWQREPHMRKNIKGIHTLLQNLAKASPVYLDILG
T1 sequence (Q16620 32-822): as above
TrkC-expressing cells (NIH+C), sequence (Q16288 32-839): as the sequence (Q16288 32-839) above
TrkA-expressing cells (HeLa+A), sequence (P04629 33-796): as the sequence (P04629 33-796) above

COc1ccc(C2=C3C=C(S(=O)(=O)O)C4=[N+]3[B-](F)(F)n3c2cc(S(=O)(=O)O)c3SC[C@H](NC(C)=O)C(=O)N[C@@H](CC(=O)O)C(=O)N[C@@H](CCC(=O)O)C(=O)N[C@@H](CCCCN)C(=O)N[C@@H](CCC(N)=O)C(=O)N[C@H](C(N)=O)CS4)cc1 [5a(iii)m] (Ac-CDEKQC-NH2; linker 1-6 via X1; N-terminus and C-terminus assumed)
result (Trk activity assigned) [1]: TrkA modulator

COc1ccc(C2=C3C=C(S(=O)(=O)O)C4=[N+]3[B-](F)(F)n3c2cc(S(=O)(=O)O)c3SC[C@H](NC(C)=O)C(=O)N[C@@H](CC(=O)O)C(=O)N[C@@H](CCSC)C(=O)N[C@@H](CO)C(=O)NCC(=O)N[C@H](C(N)=O)CS4)cc1 [5b(i)] (Ac-CDMSGC-NH2; linker 1-6 via X1; N-terminus and C-terminus assumed)
result (Trk activity assigned) [2]: TrkB agonist

COc1ccc(C2=C3C=C(S(=O)(=O)O)C4=[N+]3[B-](F)(F)n3c2cc(S(=O)(=O)O)c3SC[C@H](NC(C)=O)C(=O)N[C@@H](C(C)C)C(=O)N[C@@H](CO)C(=O)N[C@@H](CCCCN)C(=O)NCC(=O)N[C@H](C(N)=O)CS4)cc1 [5b(ii)] (Ac-CVSKGC-NH2; linker 1-6 via X1; N-terminus and C-terminus assumed)
result (Trk activity assigned) [2]: TrkB agonist

CC[C@H](C)[C@@H]1NC(=O)[C@H](CC(=O)O)NC(=O)[C@@H](NC(C)=O)CSc2c(S(=O)(=O)O)cc3n2[B-](F)(F)[N+]2=C(SC[C@@H](C(N)=O)NC(=O)CNC(=O)[C@H](CCCNC(=N)N)NC1=O)C(S(=O)(=O)O)=CC2=C3c1ccc(OC)cc1 [5c(i)] (Ac-CDIRGC-NH2; linker 1-6 via X1; N-terminus and C-terminus assumed)
result (Trk activity assigned) [3]: TrkB/C agonist | result (Trk activity assigned) [2]: TrkB/C agonist

COc1ccc(C2=C3C=C(S(=O)(=O)O)C4=[N+]3[B-](F)(F)n3c2cc(S(=O)(=O)O)c3SC[C@H](NC(C)=O)C(=O)N[C@@H](CCC(=O)O)C(=O)N[C@@H](CC(N)=O)C(=O)N[C@@H](CC(N)=O)C(=O)N[C@@H](CCCCN)C(=O)N[C@H](C(N)=O)CS4)cc1 [5c(iii)] (Ac-CENNKC-NH2; linker 1-6 via X1; N-terminus and C-terminus assumed)
result (Trk activity assigned) [3]: TrkC agonist

B1: cyclo-organopeptide 5b(ii) (peptide)
chain: CVSKGC
modifications: linker 1-6 via sulfonated dichloro‑BODIPY dye
Kd [4]: 115 ± 66 nM | EC50 of survival of HEK293-TrkB cells in serum-free media, with suboptimal neurotrophin (0.6 nM BDNF) [5]: 2800 nM | EC50 of survival of HEK293-TrkB cells in serum-free media, without NT [5]: 900 nM

B2: cyclo-organopeptide 5c(ii) (peptide)
peptide: CTQNSC
modifications: linker 1-6 via sulfonated dichloro‑BODIPY dye
notes: flanking Cys of the CX1X2X3X4C-peptide; also called NT-3 loop (ii) mimic; source: synthetic peptide (Fmoc SPPS), cyclised onto BODIPY, preparative HPLC
IC50 of the decrease of pAKT signalling (ELFI) in PC12 cells (rat, endogenous TrkA) when competed with 10 ng/mL NT; pair blocked: NGF and TrkA [6]: 7 μM | IC50 of the decrease of pMAPK signalling (ELFI) in PC12 cells (rat, endogenous TrkA) when competed with 10 ng/mL NT; pair blocked: NGF and TrkA [6]: 7 μM | IC50 of the decrease of pAKT signalling (ELFI) in NIH+C cells when competed with 10 ng/mL NT; pair blocked: NT-3 and TrkC [7]: 7 μM | IC50 of the decrease of pMAPK signalling (ELFI) in NIH+C cells when competed with 10 ng/mL NT; pair blocked: NT-3 and TrkC [7]: 35 μM | Kd [8]: 91 ± 2 nM | EC50 of survival of HeLa-TrkA cells in serum-free media, with suboptimal neurotrophin (0.2 nM NGF) [9]: 300 nM | EC50 of survival of HeLa-TrkA cells in serum-free media, without NT [9]: 4500 nM

B3: cyclo-organopeptide 5c(i) (peptide)
peptide: CDIRGC
modifications: linker 1-6 via sulfonated dichloro‑BODIPY dye
notes: flanking Cys of the CX1X2X3X4C-peptide; also called NT-3 loop (i) mimic; source: synthetic peptide (Fmoc SPPS), cyclised onto BODIPY, preparative HPLC
Kd [4]: 43 ± 2 nM | Kd [10]: 97 ± 4 nM | EC50 of survival of HEK293-TrkB cells in serum-free media, with suboptimal neurotrophin (0.6 nM BDNF) [5]: 2200 nM | EC50 of survival of HEK293-TrkB cells in serum-free media, without NT [5]: 100 nM

B4: cyclo-organopeptide 5a(iii)m (peptide)
chain: CDEKQC
modifications: linker 1-6 via sulfonated dichloro‑BODIPY
Kd [8]: 120 ± 3 nM | EC50 of survival of HeLa-TrkA cells in serum-free media, with suboptimal neurotrophin (0.2 nM NGF) [9]: 500 nM | EC50 of survival of HeLa-TrkA cells in serum-free media, without NT [9]: 2400 nM

B5: cyclo-organopeptide 5c(iii) (peptide)
chain: CENNKC
modifications: linker 1-6 via sulfonated dichloro‑BODIPY dye
Kd [10]: 91 ± 4 nM | EC50 of survival of NIH3T3-TrkC cells in serum-free media, with suboptimal neurotrophin (0.2 nM NT-3) [11]: 900 nM | EC50 of survival of NIH3T3-TrkC cells in serum-free media, without NT [11]: 800 nM

— article PMC11487604, “Selective, Intrinsically Fluorescent Trk Modulating Probes” (ACS Chemical Neuroscience, 2024)
